Laboratory results: patent publication US20150337051A1 (MORPHOTEK, published 2015)

How the values were obtained:
[1] = target: T1, recombinant CHO TEM-1 Fc fusion protein (UniProt Q9HCU0); experiment: ECL sandwich, competition: biotin-9G5 capture, sulfo-TAG-15F8 detection; MORAb-004 spike 6.25 µg/mL, TEM-1-Fc QC 10 ng/mL; recovery at 0 µg/mL MORAb-004: 105
T1 sequence (looked up): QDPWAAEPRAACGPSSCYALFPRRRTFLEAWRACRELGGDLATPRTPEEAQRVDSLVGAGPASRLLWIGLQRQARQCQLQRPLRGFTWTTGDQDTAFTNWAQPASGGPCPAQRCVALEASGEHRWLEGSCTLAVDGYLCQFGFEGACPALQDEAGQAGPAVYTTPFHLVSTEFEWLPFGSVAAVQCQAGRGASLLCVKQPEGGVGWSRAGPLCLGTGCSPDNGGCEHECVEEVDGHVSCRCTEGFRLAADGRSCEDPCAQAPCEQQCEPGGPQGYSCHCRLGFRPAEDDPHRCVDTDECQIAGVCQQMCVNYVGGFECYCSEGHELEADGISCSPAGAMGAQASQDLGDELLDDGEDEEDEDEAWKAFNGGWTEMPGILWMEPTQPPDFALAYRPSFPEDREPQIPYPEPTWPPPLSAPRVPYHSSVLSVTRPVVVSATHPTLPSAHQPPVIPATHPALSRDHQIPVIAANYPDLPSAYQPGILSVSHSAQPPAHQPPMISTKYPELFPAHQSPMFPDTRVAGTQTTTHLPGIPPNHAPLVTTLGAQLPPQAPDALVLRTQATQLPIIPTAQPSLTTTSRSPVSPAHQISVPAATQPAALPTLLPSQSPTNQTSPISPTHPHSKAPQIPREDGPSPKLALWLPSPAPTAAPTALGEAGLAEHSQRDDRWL

[2] = target: T1, recombinant CHO TEM-1 Fc fusion protein; experiment: ECL sandwich, competition: biotin-9G5 capture, sulfo-TAG-15F8 detection; MORAb-004 spike 0.78125 µg/mL, TEM-1-Fc QC 0.08 ng/mL; recovery at 0 µg/mL MORAb-004: 114
[3] = target: T1, recombinant CHO TEM-1 Fc fusion protein; experiment: ECL sandwich, competition: biotin-9G5 capture, sulfo-TAG-15F8 detection; MORAb-004 spike 1.5625 µg/mL, TEM-1-Fc QC 2 ng/mL; recovery at 0 µg/mL MORAb-004: 106
[4] = target: T2, TEM-1 in a native state on aortic smooth muscle cells (AoSMC) (UniProt Q9HCU0); experiment: flow cytometry on AoSMC, primary antibody then FITC secondary; cells only 2.5, secondary only 3.9
T2 sequence (looked up): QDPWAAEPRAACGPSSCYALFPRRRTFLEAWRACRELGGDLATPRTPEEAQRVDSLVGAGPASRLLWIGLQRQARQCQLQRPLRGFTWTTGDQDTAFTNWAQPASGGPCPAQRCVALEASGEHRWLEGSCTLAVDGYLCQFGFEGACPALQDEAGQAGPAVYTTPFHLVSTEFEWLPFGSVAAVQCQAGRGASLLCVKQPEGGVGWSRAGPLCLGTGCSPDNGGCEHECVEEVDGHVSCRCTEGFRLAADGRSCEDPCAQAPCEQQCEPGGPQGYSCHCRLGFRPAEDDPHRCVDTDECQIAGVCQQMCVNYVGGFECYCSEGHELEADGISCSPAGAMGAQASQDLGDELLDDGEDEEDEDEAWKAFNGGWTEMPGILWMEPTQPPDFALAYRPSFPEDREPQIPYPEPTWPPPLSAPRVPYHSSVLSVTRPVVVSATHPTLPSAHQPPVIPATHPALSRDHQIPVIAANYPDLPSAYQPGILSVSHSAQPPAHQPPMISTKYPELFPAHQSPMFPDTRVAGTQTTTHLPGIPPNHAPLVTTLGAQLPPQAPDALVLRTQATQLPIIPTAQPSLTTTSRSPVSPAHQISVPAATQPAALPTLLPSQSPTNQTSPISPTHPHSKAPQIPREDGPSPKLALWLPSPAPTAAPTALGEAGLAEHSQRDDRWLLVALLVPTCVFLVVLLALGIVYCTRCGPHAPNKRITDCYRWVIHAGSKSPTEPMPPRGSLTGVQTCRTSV

[5] = target: T1, recombinant CHO TEM-1 Fc fusion protein; experiment: ECL sandwich, competition: biotin-9G5 capture, sulfo-TAG-15F8 detection; MORAb-004 spike 50 µg/mL, TEM-1-Fc QC 0.08 ng/mL; recovery at 0 µg/mL MORAb-004: 114
[6] = target: T1, recombinant CHO TEM-1 Fc fusion protein; experiment: ECL sandwich, competition: biotin-9G5 capture, sulfo-TAG-15F8 detection; MORAb-004 spike 25 µg/mL, TEM-1-Fc QC 50 ng/mL; recovery at 0 µg/mL MORAb-004: 104
[7] = target: T1, recombinant CHO TEM-1 Fc fusion protein; experiment: ECL sandwich, competition: biotin-9G5 capture, sulfo-TAG-15F8 detection; MORAb-004 spike 12.5 µg/mL, TEM-1-Fc QC 2 ng/mL; recovery at 0 µg/mL MORAb-004: 106
[8] = target: T1, recombinant CHO TEM-1 Fc fusion protein; experiment: ECL sandwich, competition: biotin-9G5 capture, sulfo-TAG-15F8 detection; MORAb-004 spike 25 µg/mL, TEM-1-Fc QC 10 ng/mL; recovery at 0 µg/mL MORAb-004: 105
[9] = target: T1, recombinant CHO TEM-1 Fc fusion protein; experiment: ECL sandwich, competition: biotin-9G5 capture, sulfo-TAG-15F8 detection; MORAb-004 spike 0.78125 µg/mL, TEM-1-Fc QC 50 ng/mL; recovery at 0 µg/mL MORAb-004: 104
[10] = target: T1, recombinant CHO TEM-1 Fc fusion protein; experiment: ECL sandwich, competition: biotin-9G5 capture, sulfo-TAG-15F8 detection; MORAb-004 spike 6.25 µg/mL, TEM-1-Fc QC 2 ng/mL; recovery at 0 µg/mL MORAb-004: 106
[11] = target: T1, recombinant CHO TEM-1 Fc fusion protein; experiment: ECL sandwich, competition: biotin-9G5 capture, sulfo-TAG-15F8 detection; MORAb-004 spike 3.125 µg/mL, TEM-1-Fc QC 0.4 ng/mL; recovery at 0 µg/mL MORAb-004: 109

- % Recovery of TEM-1 QCs spiked with MORAb-004 [1]: 94.4%
- % Recovery of TEM-1 QCs spiked with MORAb-004 [2]: 107%
- % Recovery of TEM-1 QCs spiked with MORAb-004 [3]: 98.9%
- Geometric mean of resulting FACS plot [4]: 103
- % Recovery of TEM-1 QCs spiked with MORAb-004 [5]: 94.1%
- % Recovery of TEM-1 QCs spiked with MORAb-004 [6]: 92.8%
- % Recovery of TEM-1 QCs spiked with MORAb-004 [7]: 92.8%
- % Recovery of TEM-1 QCs spiked with MORAb-004 [8]: 91.3%
- % Recovery of TEM-1 QCs spiked with MORAb-004 [9]: 99.3%
- % Recovery of TEM-1 QCs spiked with MORAb-004 [10]: 94.2%
- % Recovery of TEM-1 QCs spiked with MORAb-004 [11]: 101%
B1: MORAb-004 (antibody, INN chains, looked up, V domains shown)
VH: QVQLQESGPGLVRPSQTLSLTCTASGYTFTDYVIHWVKQPPGRGLEWIGYINPYDDDTTYNQKFKGRVTMLVDTSSNTAYLRLSSVTAEDTAVYYCARRGNSYDGYFDYSMDYWGSGTPVTVSS
VL: DIQMTQSPSSLSASVGDRVTITCRASQNVGTAVAWLQQTPGKAPKLLIYSASNRYTGVPSRFSGSGSGTDYTFTISSLQPEDIATYYCQQYTNYPMYTFGQGTKVQIK
